Results: article PMC11476691, “ATM1, an essential conserved transporter in Apicomplexa, bridges mitochondrial and cytosolic [Fe-S] biogenesis” (PLOS Pathogens, 2024)

How the values were obtained:
[1] = target: T1, PfIscA2 (Plasmodium falciparum, UniProt O97297); assay: chemical reconstitution, cluster donor assay, UV-VIS; type: binding; details: anaerobic, 25 mM Tris-Cl pH 7.5, 100 mM NaCl
T1 construct: gene IscA2; GST fusion from pGEX-KG in E. coli C43, GST removed by thrombin
T1 sequence (O97297 1-404): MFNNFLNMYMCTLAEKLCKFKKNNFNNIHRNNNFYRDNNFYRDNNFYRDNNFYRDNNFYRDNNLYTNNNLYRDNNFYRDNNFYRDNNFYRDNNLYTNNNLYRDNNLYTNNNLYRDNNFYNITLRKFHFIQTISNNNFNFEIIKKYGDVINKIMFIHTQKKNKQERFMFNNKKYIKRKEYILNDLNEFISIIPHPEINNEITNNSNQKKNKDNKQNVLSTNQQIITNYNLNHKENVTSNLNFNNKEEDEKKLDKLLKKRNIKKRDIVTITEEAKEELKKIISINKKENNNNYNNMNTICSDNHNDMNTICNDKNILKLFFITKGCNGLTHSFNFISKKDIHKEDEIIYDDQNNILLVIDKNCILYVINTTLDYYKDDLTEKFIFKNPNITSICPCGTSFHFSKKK

[2] = target: T2, PfIscU (Plasmodium falciparum, UniProt Q8IKT4); assay: as above; type: binding; details: anaerobic, 25 mM Tris-Cl pH 7.5, 100 mM NaCl
T2 construct: gene IscU; GST fusion from pGEX-KG in E. coli BL21(DE3), GST removed by thrombin
T2 sequence (Q8IKT4 1-162): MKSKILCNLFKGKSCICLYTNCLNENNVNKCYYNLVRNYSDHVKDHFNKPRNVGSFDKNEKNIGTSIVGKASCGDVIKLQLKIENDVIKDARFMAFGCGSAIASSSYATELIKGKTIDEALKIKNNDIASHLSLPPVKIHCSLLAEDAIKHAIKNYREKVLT

[3] = target: T3, PfATM1-CTD (Plasmodium falciparum, UniProt Q8IDH9); assay: UV-VIS spectroscopy; type: binding; details: as purified; lower intensity than full length
T3 construct: gene ABCB6
T3 sequence (Q8IDH9 807-1049): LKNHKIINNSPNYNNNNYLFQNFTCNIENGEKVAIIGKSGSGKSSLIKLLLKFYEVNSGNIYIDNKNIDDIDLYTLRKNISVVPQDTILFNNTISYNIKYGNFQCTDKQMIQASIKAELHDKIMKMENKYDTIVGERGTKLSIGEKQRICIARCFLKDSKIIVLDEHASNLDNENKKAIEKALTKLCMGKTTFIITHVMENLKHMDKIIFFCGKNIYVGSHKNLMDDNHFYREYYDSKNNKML

[4] = target: the molecule itself; assay: SDS-PAGE of the purified protein; purified PfATM1-CTD on Coomassie-stained SDS-PAGE and western blot with anti-6XHis Ab; dimer of about 60 kDa beside the monomer of about 30 kDa; broken with DTT and urea
[5] = substrate: Nc1ncnc2c1ncn2[C@@H]1O[C@H](COP(=O)(O)OP(=O)(O)OP(=O)(O)O)[C@@H](O)[C@H]1O; assay: ATPase, phosphate release (EnzChek MESG/PNP); type: biochemical, Plasmodium falciparum; details: 500 nM holo-PfATM1, increasing ATP, no GSSG
[6] = target: the molecule itself; assay: SEC + native gel or EMSA; Superdex S-200; fractions electrophoresed on 6% native-PAGE; dimer to monomers

[S]12[Fe]3[S]4[Fe]1[S]1[Fe]2[S]3[Fe]41 [[4Fe-4S]]
chemical reconstitution, cluster donor assay, UV-VIS [1]: Reconstituted PfIscU and PfIscA2 carrying [4Fe-4S] were then used as cluster donors
chemical reconstitution, cluster donor assay, UV-VIS [2]: Reconstituted PfIscU and PfIscA2 carrying [4Fe-4S] were then used as cluster donors
UV-VIS spectroscopy [3]: A lower intensity [4Fe-4S] peak was also observed in PfATM1-CTD

B1: PfATM1-CTD (domain or fragment, P. falciparum, UniProt Q8IDH9 807-1049, looked up)
chain: T3 sequence (Q8IDH9 807-1049)
notes: P. falciparum ATM1 (PfATM1, ABCB6, MDR6), PF3D7_1352100, C-terminal ATPase domain, aa 807-1049; Cloned in pET23a; About 30 kDa, with a dimeric form of about 60 kDa on SDS-PAGE; also called C-terminal ATPase domain of PfATM1; source: E. coli BL21 (DE3), purified (Ni-NTA, SEC Superdex S-75)
stoichiometry N [4]: 2

B2: PfATM1 (PfABCB6 / PfMDR6) (Plasmodium falciparum 3D7) (protein)
chain: RISDEFYSSFLYHSYIENLKSTKEYVYFIYLQDIYYNINIFKNKGRLYISNNGLCNDKLKDNNNNNNINSNNFGNSYNAYTKKKSFYHSFNDLNEAKEIRKKRKNEKSEKNIVEYLLCNIINPNENYHIQNIYNHNLNNNVSIEIHKKNDSVMYHYNNEKKTKTSKMTTDIKLKQINNVYIKYVPYKNKIITLACPNKYYPTLYRYFSSHTNKKEDAEENDKNKNININNVDNRYKEDFMYGCENKNDSEKHKKTTNNNFGDEFEKLKVKELDKILNKLEMLYDNKNNKMNINVKILGYIFKNFLLKNKELKRKIFCSLFFLLCSKMAIIYTPILLSTFIENVNLQKSLSNNIDIYSTNKSSVLLLCAYVFSRVLSSTMNELRNSVFSNISQKISTFVSKLFFYKIHNLNLTYILSKKNGELSFIFNRGCKSITNLLNVMVFQIIPIIIEFILYLYILTYKIHYTVSLVTCFNMFLYVLFTTLITKRRTIIRKHMNKAEQNTFNIFLDSIQNVEQVKYYTNEIHELKKFIKEQKKYEKEAINVQKSLSFLNFGQQIILNTNLFLCMYLTYLNIANDIFPFSYLILVNTLLFQLAMPLNMFGTIYRETKLSLVDIESMIKILVKKIKSPDYGNQMLIKNGNIKFENVYFKYPLNEDINGLEQNYQAKEKDPNIINNINNINNINNINNINNINSINNIYTFESNVKNISSTNMITSSINKLKKWYLDKVKDNKKNVQYNNNDVKKTNPNITKNLNKEIKENINTHLKNHKIINNSPNYNNNNYLFQNFTCNIENGEKVAIIGKSGSGKSSLIKLLLKFYEVNSGNIYIDNKNIDDIDLYTLRKNISVVPQDTILFNNTISYNIKYGNFQCTDKQMIQASIKAELHDKIMKMENKYDTIVGERGTKLSIGEKQRICIARCFLKDSKIIVLDEHASNLDNENKKAIEKALTKLCMGKTTFIITHVMENLKHMDKIIFFCGKNIYVGSHKNLMDDNHFYREYYDSKNNKML
notes: predicted mature form aa 43-1049 (MTS removed), E. coli YbeL hydrophilic domain (beta) and 6xHis fused at both N- and C-termini (pET28a beta-PfATM1-beta), E. coli C43, 152 kDa monomer, homodimer
Km [5]: 178.9 ± 34.86 µM
kcat [5]: 0.129 ± 0.00767 s⁻¹

B3: recombinant PfATM1 (6X-His tagged β-PfATM1-β) (natural protein, P. falciparum, UniProt Q8IDH9 43-1049, looked up)
chain: B2 chain
notes: P. falciparum ATM1 (PfATM1, ABCB6, MDR6), PF3D7_1352100, predicted mature form, aa 43-1049; Monomer 152 kDa, dimer about 300 kDa with the fusion domains; also called full-length PfATM1; PfATM1 dimer; source: E. coli C43, purified from membranes (DDM and Triton X-114, Ni-NTA, SEC Superdex S-200); not shown: E. coli YbeL hydrophilic fusion domain (β), N-terminal, kept; E. coli YbeL hydrophilic …
stoichiometry N [6]: 2
